Laboratory results: US7033593

How the values were obtained:
[1] = biological target: T1, CD4-gp140 complex (HIV 89.6 gp140 bound to sCD4) (HIV 89.6 (Clade B) primary isolate), Q73372; test: SPR, row CD4+gp140 (89.6 gp140); column headed Kd s-1
[2] = biological target: T2, CD4-gp140-D1 complex (HIV 89.6 gp140 bound to sCD4 and the CCR5-D1 peptide) (HIV 89.6 (Clade B) primary isolate; human), Q73372; test: SPR, row CD4+gp140+R5-D1 (89.6 gp140)
[3] = biological target: T1, CD4-gp140 complex (HIV 89.6 gp140 bound …); test: SPR, row CD4-gp140
[4] = biological target: T2, CD4-gp140-D1 complex (HIV 89.6 gp140 …); test: SPR, RU bound at steady state, row CD4+gp140+R5-D1 (89.6 gp140)
[5] = biological target: T2, CD4-gp140-D1 complex (HIV 89.6 gp140 …); test: SPR, row CD4+gp140+R5-D1 (89.6 gp140); column headed Ka
[6] = biological target: T1, CD4-gp140 complex (HIV 89.6 gp140 bound …); test: SPR, row CD4+gp140 (89.6 gp140); column headed Ka
[7] = biological target: T1, CD4-gp140 complex (HIV 89.6 gp140 bound …); test: SPR, row CD4+gp140 (89.6 gp140)
[8] = biological target: T2, CD4-gp140-D1 complex (HIV 89.6 gp140 …); test: SPR, row CD4+gp140+R5-D1 (89.6 gp140); column headed Kd s-1
[9] = biological target: T1, CD4-gp140 complex (HIV 89.6 gp140 bound …); test: SPR, RU bound at steady state, row CD4+gp140 (89.6 gp140)
[10] = biological target: CD4-gp120 complex (HIV 89.6 gp120 bound to sCD4) (HIV 89.6 (Clade B) primary isolate), Q73372; test: SPR, row CD4-gp120
[11] = biological target: T1, CD4-gp140 complex (HIV 89.6 gp140 bound …); test: SPR, peptide over gp140 captured on immobilised CD4
[12] = biological target: T1, CD4-gp140 complex (HIV 89.6 gp140 bound …); test: SPR (FIG. 10D); the legend of the same figure prints 280 nM
[13] = biological target: soluble HIV 89.6 gp140 envelope protein (cleaved gp140 preparation) (HIV 89.6 (Clade B) primary isolate), Q73372; test: SPR, peptide over directly immobilised 89.6 gp140, no CD4

Binder: WMEWDREINNYTSLIHSLIEESQNQLEKNEQELLEL (modifications not checked) [HR-2 peptide T649Q26L]
- koff [1]: 0.0146 s⁻¹
- Kd [2]: 1 µM
- t1/2 [2]: 2.18 min
- Kd [3]: 1.2 µM
- koff [3]: 0.0011 s⁻¹
- kon [3]: 880 M⁻¹ s⁻¹
- t1/2 [3]: 10.5 min
- Rm [4]: 64 RU
- kon [5]: 5100 M⁻¹ s⁻¹
- kon [6]: 6200 M⁻¹ s⁻¹
- Kd [7]: 2.4 µM
- t1/2 [7]: 0.8 min
- koff [8]: 0.0053 s⁻¹
- Rm [9]: 53 RU
- Kd [10]: 2.54 µM
- koff [10]: 0.0032 s⁻¹
- kon [10]: 1260 M⁻¹ s⁻¹
- t1/2 [10]: 3.62 min

Binder: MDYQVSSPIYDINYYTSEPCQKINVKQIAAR (modifications not checked) [CCR5-D1 peptide]
- Kd [11]: 0.28 µM
- koff [11]: 0.00256 s⁻¹
- kon [11]: 9000 M⁻¹ s⁻¹
- Kd [12]: 0.28 µM
- Kd [13]: 1 µM
- koff [13]: 0.01 s⁻¹
